Test results from PMC9482650, “Quantitative fragmentomics allow affinity mapping of interactomes” (Nature Communications, 2022).

B1: GPRC6A, Q5T6X5 (peptide)
chain: TLPRKRMSSI
B2: RSRC2, Q7L4I2 (peptide)
chain: TSSMRGMDAV

Experiments:
Assay in all cases: holdup assay
Design in all cases: key: below the threshold = too weak to quantify, mostly under pKd 3.1 to 4
Details in all cases: plain residues with an end cap or a label only (N-terminal biotin on a linker: ado-ado)
TJP1_3, Q07157 = target: TJP1_3, Q07157
GRIP1_7, Q9Y3R0 = target: T1, GRIP1_7, Q9Y3R0
T1 sequence (Q9Y3R0 999-1096, limits assumed, looked up): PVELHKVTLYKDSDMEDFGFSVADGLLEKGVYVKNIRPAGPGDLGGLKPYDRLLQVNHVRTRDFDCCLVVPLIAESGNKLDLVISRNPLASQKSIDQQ

APBA3_1, O96018 = target: T2, APBA3_1, O96018
T2 sequence (O96018 389-490, limits assumed, looked up): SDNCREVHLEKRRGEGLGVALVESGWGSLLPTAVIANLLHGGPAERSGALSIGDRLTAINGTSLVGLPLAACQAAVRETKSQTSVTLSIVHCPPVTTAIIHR

Inadl_3, Q8NI35 = target: Inadl_3, Q8NI35
DLG5_1, Q8TDM6 = target: DLG5_1, Q8TDM6
RAPGEF6, Q8TEU7 = target: T3, RAPGEF6, Q8TEU7
T3 sequence (Q8TEU7 525-625, limits assumed, looked up): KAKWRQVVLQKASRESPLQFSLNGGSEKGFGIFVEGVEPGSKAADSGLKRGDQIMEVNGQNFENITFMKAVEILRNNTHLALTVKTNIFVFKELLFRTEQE

APBA2_1, Q99767 = target: T4, APBA2_1, Q99767
T4 sequence (Q99767 563-664, limits assumed, looked up): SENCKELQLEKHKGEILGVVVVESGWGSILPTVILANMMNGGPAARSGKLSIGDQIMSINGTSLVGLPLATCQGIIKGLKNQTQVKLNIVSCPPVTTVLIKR

GRIP2_4, Q9C0E4 = target: GRIP2_4, Q9C0E4
SNTG1, Q9NSN8 = target: T5, SNTG1, Q9NSN8
T5 sequence (Q9NSN8 52-150, limits assumed, looked up): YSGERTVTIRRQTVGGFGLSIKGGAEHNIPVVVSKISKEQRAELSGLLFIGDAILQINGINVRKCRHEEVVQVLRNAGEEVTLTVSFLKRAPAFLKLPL

GRIP2_5, Q9C0E4 = target: GRIP2_5, Q9C0E4
FRMPD2_2, Q68DX3 = target: FRMPD2_2, Q68DX3
MPP6, Q9NZW5 = target: T6, MPP6, Q9NZW5
T6 sequence (Q9NZW5 125-219, limits assumed, looked up): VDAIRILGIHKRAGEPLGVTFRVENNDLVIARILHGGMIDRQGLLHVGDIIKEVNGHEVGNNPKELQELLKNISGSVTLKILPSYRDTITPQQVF

PDLIM1, O00151 = target: PDLIM1, O00151
PDZD2_2, O15018 = target: T7, PDZD2_2, O15018
T7 sequence (O15018 329-429, limits assumed, looked up): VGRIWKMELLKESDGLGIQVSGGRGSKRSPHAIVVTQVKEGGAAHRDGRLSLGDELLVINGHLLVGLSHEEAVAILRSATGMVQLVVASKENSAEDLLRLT

DLG1_1, Q12959 = target: DLG1_1, Q12959
GRIP2_6, Q9C0E4 = target: GRIP2_6, Q9C0E4
LIMK2, P53671 = target: LIMK2, P53671
SNTB1, Q13884 = target: T8, SNTB1, Q13884
T8 sequence (Q13884 107-205, limits assumed, looked up): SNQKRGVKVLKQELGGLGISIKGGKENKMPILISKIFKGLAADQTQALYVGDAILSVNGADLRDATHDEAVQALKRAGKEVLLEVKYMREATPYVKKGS

LNX2_3, Q8N448 = target: T9, LNX2_3, Q8N448
T9 sequence (Q8N448 463-564, limits assumed, looked up): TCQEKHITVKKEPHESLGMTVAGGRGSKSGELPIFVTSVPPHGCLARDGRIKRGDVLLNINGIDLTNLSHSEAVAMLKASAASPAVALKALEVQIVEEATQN

Inadl_2, Q8NI35 = target: Inadl_2, Q8NI35
RADIL, Q96JH8 = target: T10, RADIL, Q96JH8
T10 sequence (Q96JH8 971-1071, limits assumed, looked up): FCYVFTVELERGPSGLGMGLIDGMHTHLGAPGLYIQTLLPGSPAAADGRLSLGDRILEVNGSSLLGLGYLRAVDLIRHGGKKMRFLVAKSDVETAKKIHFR

HTRA4, P83105 = target: T11, HTRA4, P83105
T11 sequence (P83105 378-476, limits assumed, looked up): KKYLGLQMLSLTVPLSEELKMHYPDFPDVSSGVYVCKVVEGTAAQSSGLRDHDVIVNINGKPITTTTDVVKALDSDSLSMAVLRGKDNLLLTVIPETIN

TIAM2, Q8IVF5 = target: T12, TIAM2, Q8IVF5
T12 sequence (Q8IVF5 885-986, limits assumed, looked up): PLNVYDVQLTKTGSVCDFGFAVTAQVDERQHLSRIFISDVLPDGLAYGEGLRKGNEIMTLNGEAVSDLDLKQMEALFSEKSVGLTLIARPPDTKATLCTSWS

Inadl_5, Q8NI35 = target: Inadl_5, Q8NI35
DLG4_1, P78352 = target: DLG4_1, P78352
Sequence of DLG4_1, P78352 (P78352 62-152): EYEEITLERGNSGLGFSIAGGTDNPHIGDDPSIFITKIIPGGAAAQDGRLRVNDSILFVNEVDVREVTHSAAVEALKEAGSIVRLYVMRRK

Sequence of Inadl_2, Q8NI35 (Q8NI35 238-335): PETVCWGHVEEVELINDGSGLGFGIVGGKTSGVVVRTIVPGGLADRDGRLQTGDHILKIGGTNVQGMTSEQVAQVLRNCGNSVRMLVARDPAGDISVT
Sequence of TJP1_3, Q07157 (Q07157 416-512): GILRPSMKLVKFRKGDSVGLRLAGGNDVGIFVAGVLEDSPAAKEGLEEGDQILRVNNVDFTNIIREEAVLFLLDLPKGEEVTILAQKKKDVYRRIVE
Sequence of GRIP2_5, Q9C0E4 (Q9C0E4 544-642): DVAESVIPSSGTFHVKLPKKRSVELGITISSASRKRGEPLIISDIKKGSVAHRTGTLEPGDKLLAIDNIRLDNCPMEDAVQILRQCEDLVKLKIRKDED
Sequence of Inadl_5, Q8NI35 (Q8NI35 673-780): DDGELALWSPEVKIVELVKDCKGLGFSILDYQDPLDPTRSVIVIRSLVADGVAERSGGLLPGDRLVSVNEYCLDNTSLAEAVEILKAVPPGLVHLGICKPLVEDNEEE
Sequence of DLG5_1, Q8TDM6 (Q8TDM6 617-713): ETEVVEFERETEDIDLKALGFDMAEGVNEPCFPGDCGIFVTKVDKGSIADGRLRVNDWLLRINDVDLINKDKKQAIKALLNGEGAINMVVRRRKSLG
Sequence of GRIP2_4, Q9C0E4 (Q9C0E4 446-548): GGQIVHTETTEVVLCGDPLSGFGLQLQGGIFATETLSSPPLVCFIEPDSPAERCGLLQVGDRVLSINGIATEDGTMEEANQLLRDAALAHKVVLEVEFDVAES
Sequence of GRIP2_6, Q9C0E4 (Q9C0E4 648-740): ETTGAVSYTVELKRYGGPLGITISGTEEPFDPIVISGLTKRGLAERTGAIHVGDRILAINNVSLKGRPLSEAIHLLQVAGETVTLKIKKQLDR
Sequence of LIMK2, P53671 (P53671 143-248): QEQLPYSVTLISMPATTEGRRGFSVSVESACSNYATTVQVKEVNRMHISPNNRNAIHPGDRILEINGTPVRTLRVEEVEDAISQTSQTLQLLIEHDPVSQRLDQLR
Sequence of PDLIM1, O00151 (O00151 1-87): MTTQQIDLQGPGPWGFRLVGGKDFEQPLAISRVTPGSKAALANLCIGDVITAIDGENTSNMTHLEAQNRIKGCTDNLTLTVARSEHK
Sequence of Inadl_3, Q8NI35 (Q8NI35 359-469): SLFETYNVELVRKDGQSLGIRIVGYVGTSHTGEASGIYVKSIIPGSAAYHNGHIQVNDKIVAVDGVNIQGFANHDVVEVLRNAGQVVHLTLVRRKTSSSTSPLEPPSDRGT
Sequence of FRMPD2_2, Q68DX3 (Q68DX3 944-1038): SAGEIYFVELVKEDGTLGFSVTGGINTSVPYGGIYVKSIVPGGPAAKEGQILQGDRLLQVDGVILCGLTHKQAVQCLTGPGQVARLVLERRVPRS

Binder | pKd (TJP1_3, Q07157) | pKd (GRIP1_7, Q9Y3R0) | pKd (APBA3_1, O96018) | pKd (Inadl_3, Q8NI35) | pKd (DLG5_1, Q8TDM6) | pKd (RAPGEF6, Q8TEU7) | pKd (APBA2_1, Q99767) | pKd (GRIP2_4, Q9C0E4) | pKd (SNTG1, Q9NSN8) | pKd (GRIP2_5, Q9C0E4) | pKd (FRMPD2_2, Q68DX3) | pKd (MPP6, Q9NZW5) | pKd (PDLIM1, O00151) | pKd (PDZD2_2, O15018) | pKd (DLG1_1, Q12959) | pKd (GRIP2_6, Q9C0E4) | pKd (LIMK2, P53671) | pKd (SNTB1, Q13884) | pKd (LNX2_3, Q8N448) | pKd (Inadl_2, Q8NI35) | also measured
B1 | below the threshold | below the threshold | below the threshold | below the threshold | below the threshold | below the threshold | below the threshold | below the threshold | below the threshold | below the threshold | below the threshold | below the threshold | below the threshold | 4.22 | below the threshold | below the threshold | below the threshold | below the threshold | below the threshold | below the threshold | pKd (RADIL, Q96JH8): below the threshold; pKd (HTRA4, P83105): below the threshold; pKd (TIAM2, Q8IVF5): 4.07; pKd (Inadl_5, Q8NI35): below the threshold; pKd (DLG4_1, P78352): below the threshold
B2 | below the threshold | below the threshold | below the threshold | below the threshold | below the threshold | below the threshold | below the threshold | below the threshold | below the threshold | below the threshold | below the threshold | 3.79 | below the threshold | below the threshold | below the threshold | below the threshold | below the threshold | below the threshold | below the threshold | below the threshold | pKd (RADIL, Q96JH8): below the threshold; pKd (HTRA4, P83105): below the threshold; pKd (TIAM2, Q8IVF5): below the threshold; pKd (Inadl_5, Q8NI35): below the threshold; pKd (DLG4_1, P78352): 3.49
